Laboratory results as given in publication PMC10916398.

How the values were obtained:
HUα = target: T1, HUα (UniProt P0ACF0); assay: EMSA
T1 sequence: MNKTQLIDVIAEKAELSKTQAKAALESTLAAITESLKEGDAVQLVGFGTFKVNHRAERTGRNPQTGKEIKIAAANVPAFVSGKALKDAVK

HUβ = target: T2, HUβ (UniProt P0ACF4); assay: EMSA
T2 sequence: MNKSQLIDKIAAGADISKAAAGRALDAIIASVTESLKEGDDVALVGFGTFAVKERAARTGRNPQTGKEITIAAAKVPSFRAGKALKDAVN

GGCAGTCGTTGATAGTGGATGGCGGCTTTATGTTGGCGAATCCACAGTTCAACCCAGAATAGCGCAGTGAGGTGCGTGGATATTTCATTGGGGCTGAATTTACAATCCAAGTGCAACAAAAAAAGAAGTACTCATCAACTAGAATATAATTTTGTTTCCACACAAAAACCATTTCCAAATGATGAGTACTTCCTACCGACATCTTACAATAAACGAGCGAGAAAAGATAATGATTTTACTCGCACAGGGC (double strand) [IRL-FAM-Long (ISApl1 promoter)]
binding (HUα): binds | binding (HUβ): binds

CTTGAATTGTCAAACCAAGTGCAACGATTTTTTGAAGTAAACTTCATAAGGTGTTTTCCAACCTAAACATTTACGTGGTCGTAAATTCAGTTT (double strand) [IRR-FAM-WT]
binding (HUα): binds | binding (HUβ): binds

CCCATACTGAATATACACTTGAGAGTATTTATAATTTGTATCTTGAATTGTCAAACCAAGTGCAACGATTTTTTGAAGTAAACTTCATAAGGTGTTTTCCAACCTAAACATTTACGTGGTCGTAAATTCAGTTT (double strand) [IRR-FAM-Long]
binding (HUα): binds | binding (HUβ): binds

AAACTGAATTTACGACCACGTAAATGTTTAGGTTGGAAAACACCTTATGAAGTTTACTTCAAAAAA (double strand) [IRR-FAM-NO-IRR]
binding signal (HUα): binds more weakly | binding signal (HUβ): binds more weakly
